Data from article PMC4749184, “Viral Replication Protein Inhibits Cellular Cofilin Actin Depolymerization Factor to Regulate the Actin Network and Promote Viral Replicase Assembly” (PLoS Pathogens, 2016).

T1: FLAG-tagged p33 replication protein (Tomato bushy stunt virus, UniProt P15962 1-296)
T1 construct: p33 replication protein of Tomato bushy stunt virus (tombusvirus); also called FLAG-p33; source: yeast (BY4741, cof1 ts and act1 ts strains), CUP1 promoter, in detergent-solubilized membrane fraction
T1 sequence: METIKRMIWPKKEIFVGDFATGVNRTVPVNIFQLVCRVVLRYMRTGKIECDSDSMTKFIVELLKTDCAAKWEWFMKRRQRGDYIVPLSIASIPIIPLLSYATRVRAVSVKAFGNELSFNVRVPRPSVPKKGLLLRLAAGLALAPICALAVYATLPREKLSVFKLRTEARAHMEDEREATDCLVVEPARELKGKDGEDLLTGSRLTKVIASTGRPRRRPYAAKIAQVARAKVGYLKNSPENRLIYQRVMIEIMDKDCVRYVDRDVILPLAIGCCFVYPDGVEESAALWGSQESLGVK

B1: Pbp2 RNA binding protein (natural protein, yeast (S. cerevisiae), UniProt P38151 1-413, looked up)
chain: MSTETTKPSITTTPTTVLVSPNTLKRKKGEDTSEEQLEAEIKRVALKDADSHSDNDHDSPDNVPSDVHLRMLCLVKHASLIVGHKGATISRIKSETSARINISNNIRGVPERIVYVRGTCDDVAKAYGMIVRALLEEHGNEDNGEDIEISINLLIPHHLMGCIIGKRGSRLREIEDLSAAKLFASPNQLLLSNDRILTINGVPDAIHIATFYISQTLLNFQMESPQKNVKRSIYYQPTQFNSVLIDHSQPNTIFHQRNHQYHPSDKLLSYKPNKNLPISSTLLSMATPQYTTASVANATAFQPNFVIPNVTVLDGPVISPAPGNHLLMNFVQQEIFIDEKFVGNVIGKDGKHINSVKESTGCSIIIQDPVEGSSERRLTIRGTFMASQAAIMLISNKIEIDRSNAERKRRSPL
notes: source: yeast (act1-132 ts and WT), co-purified with p33
B2: Tef1 eEF1A (Tef1p) (natural protein, yeast (S. cerevisiae), UniProt P02994 1-458, looked up)
chain: MGKEKSHINVVVIGHVDSGKSTTTGHLIYKCGGIDKRTIEKFEKEAAELGKGSFKYAWVLDKLKAERERGITIDIALWKFETPKYQVTVIDAPGHRDFIKNMITGTSQADCAILIIAGGVGEFEAGISKDGQTREHALLAFTLGVRQLIVAVNKMDSVKWDESRFQEIVKETSNFIKKVGYNPKTVPFVPISGWNGDNMIEATTNAPWYKGWEKETKAGVVKGKTLLEAIDAIEQPSRPTDKPLRLPLQDVYKIGGIGTVPVGRVETGVIKPGMVVTFAPAGVTTEVKSVEMHHEQLEQGVPGDNVGFNVKNVSVKEIRRGNVCGDAKNDPPKGCASFNATVIVLNHPGQISAGYSPVLDCHTAHIACRFDELLEKNDRRSGKKLEDHPKFLKSGDAALVKFVPSKPMCVEAFSEYPPLGRFAVRDMRQTVAVGVIKSVDKTEKAAKVTKAAQKAAKK
notes: Tef1p, eukaryotic elongation factor 1A, cellular host factor in yeast; source: yeast (act1-132 ts and WT), co-purified with p33
B3: Tdh2 GAPDH (Tdh2p) (enzyme, yeast (S. cerevisiae), UniProt P00358 1-332, looked up)
chain: MVRVAINGFGRIGRLVMRIALQRKNVEVVALNDPFISNDYSAYMFKYDSTHGRYAGEVSHDDKHIIVDGHKIATFQERDPANLPWASLNIDIAIDSTGVFKELDTAQKHIDAGAKKVVITAPSSTAPMFVMGVNEEKYTSDLKIVSNASCTTNCLAPLAKVINDAFGIEEGLMTTVHSMTATQKTVDGPSHKDWRGGRTASGNIIPSSTGAAKAVGKVLPELQGKLTGMAFRVPTVDVSVVDLTVKLNKETTYDEIKKVVKAAAEGKLKGVLGYTEDAVVSSDFLGDSNSSIFDAAAGIQLSPKFVKLVSWYDNEYGYSTRVVDLVEHVAKA
notes: Tdh2p, glyceraldehyde-3-phosphate dehydrogenase, cellular host factor in yeast; source: yeast (act1-132 ts and WT), co-purified with p33
B4: Vps4 AAA ATPase (Vps4p) (enzyme, yeast (S. cerevisiae), UniProt P52917 1-437, looked up)
chain: MSTGDFLTKGIELVQKAIDLDTATQYEEAYTAYYNGLDYLMLALKYEKNPKSKDLIRAKFTEYLNRAEQLKKHLESEEANAAKKSPSAGSGSNGGNKKISQEEGEDNGGEDNKKLRGALSSAILSEKPNVKWEDVAGLEGAKEALKEAVILPVKFPHLFKGNRKPTSGILLYGPPGTGKSYLAKAVATEANSTFFSVSSSDLVSKWMGESEKLVKQLFAMARENKPSIIFIDEVDALTGTRGEGESEASRRIKTELLVQMNGVGNDSQGVLVLGATNIPWQLDSAIRRRFERRIYIPLPDLAARTTMFEINVGDTPCVLTKEDYRTLGAMTEGYSGSDIAVVVKDALMQPIRKIQSATHFKDVSTEDDETRKLTPCSPGDDGAIEMSWTDIEADELKEPDLTIKDFLKAIKSTRPTVNEDDLLKQEQFTRDFGQEGN
notes: Vps4p AAA ATPase, cellular host factor in yeast; source: yeast (act1-132 ts and WT), co-purified with p33
B5: Rpn11 deubiquitinase (enzyme, yeast (S. cerevisiae), UniProt P43588 1-306, looked up)
chain: MERLQRLMMNSKVGSADTGRDDTKETVYISSIALLKMLKHGRAGVPMEVMGLMLGEFVDDYTVNVVDVFAMPQSGTGVSVEAVDDVFQAKMMDMLKQTGRDQMVVGWYHSHPGFGCWLSSVDVNTQKSFEQLNSRAVAVVVDPIQSVKGKVVIDAFRLIDTGALINNLEPRQTTSNTGLLNKANIQALIHGLNRHYYSLNIDYHKTAKETKMLMNLHKEQWQSGLKMYDYEEKEESNLAATKSMVKIAEQYSKRIEEEKELTEEELKTRYVGRQDPKKHLSETADETLENNIVSVLTAGVNSVAIK
notes: Rpn11 deubiquitinase, cellular host factor in yeast; source: yeast (act1-132 ts and WT), co-purified with p33
B6: Cdc34 E2 enzyme (ubiquitin-conjugating enzyme) (enzyme, yeast (S. cerevisiae), UniProt P14682 1-295, looked up)
chain: MSSRKSTASSLLLRQYRELTDPKKAIPSFHIELEDDSNIFTWNIGVMVLNEDSIYHGGFFKAQMRFPEDFPFSPPQFRFTPAIYHPNVYRDGRLCISILHQSGDPMTDEPDAETWSPVQTVESVLISIVSLLEDPNINSPANVDAAVDYRKNPEQYKQRVKMEVERSKQDIPKGFIMPTSESAYISQSKLDEPESNKDMADNFWYDSDLDDDENGSVILQDDDYDDGNNHIPFEDDDVYNYNDNDDDDERIEFEDDDDDDDDSIDNDSVMDRKQPHKAEDESEDVEDVERVSKKI
notes: Cdc34 ubiquitin-conjugating enzyme, cellular host factor in yeast; source: yeast (act1-132 ts and WT), co-purified with p33
B7: 6xHis-Vap27-1 (VAP protein, Scs2-like plant ortholog) (natural protein, UniProt Q8VZ95 1-256, looked up)
chain: MSNIDLIGMSNRDLIGMSNSELLTVEPLDLQFPFELKKQISCSLYLTNKTDNNVAFKVKTTNPKKYCVRPNTGVVLPRSTCEVLVTMQAQKEAPSDMQCKDKFLLQGVIASPGVTAKEVTPEMFSKEAGHRVEETKLRVTYVAPPRPPSPVHEGSEEGSSPRASVSDNGHGSEFSFERFIVDNKAGHQENTSEARALITKLTEEKQSAIQLNNRLQRELDQLRRESKKSQSGGIPFMYVLLVGLIGLILGYIMKRT
notes: Vap27-1, VAMP-associated protein, a plant ortholog of yeast Scs2p; also called Vap27-1 (Scs2-like); ER-localized Vap27-1; source: expressed in yeast, in detergent-solubilized membrane fraction
B8: Vps23 ESCRT I (Vps23p ESCRT factor) (natural protein, yeast (S. cerevisiae), UniProt P25604 1-385, looked up)
chain: MSANGKISVPEAVVNWLFKVIQPIYNDGRTTFHDSLALLDNFHSLRPRTRVFTHSDGTPQLLLSIYGTISTGEDGSSPHSIPVIMWVPSMYPVKPPFISINLENFDMNTISSSLPIQEYIDSNGWIALPILHCWDPAAMNLIMVVQELMSLLHEPPQDQAPSLPPKPNTQLQQEQNTPPLPPKPKSPHLKPPLPPPPPPQPASNALDLMDMDNTDISPTNHHEMLQNLQTVVNELYREDVDYVADKILTRQTVMQESIARFHEIIAIDKNHLRAVEQAIEQTMHSLNAQIDVLTANRAKVQQFSSTSHVDDEDVNSIAVAKTDGLNQLYNLVAQDYALTDTIECLSRMLHRGTIPLDTFVKQGRELARQQFLVRWHIQRITSPLS
notes: Vps23p, ESCRT-I factor, cellular host factor in yeast; source: yeast (act1-132 ts and WT), co-purified with p33
B9: His6-tagged Osh6 protein (yeast Osh6p ORP) (natural protein, yeast (S. cerevisiae), UniProt Q02201 1-448, looked up)
chain: MGSKKLTVGSDSHRLSKSSFSSNKSSHSATKDQPIDTDDIDEDDESGHNIILNIISQLRPGCDLTRITLPTFILEKKSMLERVTNQLQFPEFLLQAHSEKDPLKRFLYVMKWYLAGWHIAPKAVKKPLNPVLGEYFTAYWDLPNKQQAYYISEQTSHHPPECAYFYMIPESSIRVDGVVIPKSRFLGNSSAAMMDGSTVLQFLDIKDGNGKPEKYVLTQPNVYVRGILFGKMRIELGDHMIIKSPNFQADIEFKTKGYVFGTYDAIEGTVKDYDGNAYYEISGKWNDVMYLKDLKQPRSSPKVFLDTHKESPLRPKVRPLSEQGEYESRKLWKKVTDALAVRNHPVATEEKFQIEDHQRQLAKKRIEDGVEFHPKLFRRSKPGEDLDYCIYKNIPVDEDPEKQIRSILQIAPILPGQQFTDKFFIPAFEKIKSQKKMIENEKQNPAKQ
notes: also called Osh6 ORP; 6xHis-Osh6p; source: yeast, GAL1 promoter (UpYC-NT-Gal1-OSH6), in detergent-solubilized membrane fraction

biological target: T1, FLAG-tagged p33 replication protein; experiment: co-IP; FLAG-affinity column purification of FLAG-p33 (co-expressed with FLAG-p92) from detergent-solubilized membrane fraction of yeast after cross-linking with 1% formaldehyde for 1 h on ice; co-purified His6-tagged host proteins detected by Western blot with anti-His antibody; yeast expressing His6-p33 as control; WT (BY4741), cof1-8 ts, cof1-22 ts, act1-121 ts, act1-132 ts, act1-105 ts and act1-112 ts yeasts at …; settings: partners not purified

| Binder | co-purified with p33 from act1-132 yeast, percent of co-purification from WT yeast |
| --- | --- |
| B1 | 85% |
| B2 | 96% |
| B3 | 111% |
| B4 | 53% |
| B5 | 161% |
| B6 | 207% |
| B7 | 218% |
| B8 | 108% |
| B9 | 258% |
